Measurements: article PMC11032491, “A conserved strategy to attack collagen: The activator domain in bacterial collagenases unwinds triple-helical collagen” (Proceedings of the National Academy of Sciences of the …, 2024)

What was measured:
[1] = biological target: V-domain of Scl2.3 (Streptococcus pyogenes); assay: SDS-PAGE (SDS-stable oligomer); 12% nonreducing SDS-PAGE of 10 µM V-(GXY)26 incubated with or without ColG-CU at 25 °C (Fig. 2C)
[2] = biological target: Type I gelatin (heat-denatured acid-soluble type I atelocollagen from bovine hides) (bovine); assay: ELISA
[3] = biological target: Acid-soluble type I atelocollagen from bovine hides (bovine) (UniProt P02453); assay: ELISA
Acid-soluble type I atelocollagen from bovine hides (bovine), sequence (P02453 162-1217, chain 1 of 2): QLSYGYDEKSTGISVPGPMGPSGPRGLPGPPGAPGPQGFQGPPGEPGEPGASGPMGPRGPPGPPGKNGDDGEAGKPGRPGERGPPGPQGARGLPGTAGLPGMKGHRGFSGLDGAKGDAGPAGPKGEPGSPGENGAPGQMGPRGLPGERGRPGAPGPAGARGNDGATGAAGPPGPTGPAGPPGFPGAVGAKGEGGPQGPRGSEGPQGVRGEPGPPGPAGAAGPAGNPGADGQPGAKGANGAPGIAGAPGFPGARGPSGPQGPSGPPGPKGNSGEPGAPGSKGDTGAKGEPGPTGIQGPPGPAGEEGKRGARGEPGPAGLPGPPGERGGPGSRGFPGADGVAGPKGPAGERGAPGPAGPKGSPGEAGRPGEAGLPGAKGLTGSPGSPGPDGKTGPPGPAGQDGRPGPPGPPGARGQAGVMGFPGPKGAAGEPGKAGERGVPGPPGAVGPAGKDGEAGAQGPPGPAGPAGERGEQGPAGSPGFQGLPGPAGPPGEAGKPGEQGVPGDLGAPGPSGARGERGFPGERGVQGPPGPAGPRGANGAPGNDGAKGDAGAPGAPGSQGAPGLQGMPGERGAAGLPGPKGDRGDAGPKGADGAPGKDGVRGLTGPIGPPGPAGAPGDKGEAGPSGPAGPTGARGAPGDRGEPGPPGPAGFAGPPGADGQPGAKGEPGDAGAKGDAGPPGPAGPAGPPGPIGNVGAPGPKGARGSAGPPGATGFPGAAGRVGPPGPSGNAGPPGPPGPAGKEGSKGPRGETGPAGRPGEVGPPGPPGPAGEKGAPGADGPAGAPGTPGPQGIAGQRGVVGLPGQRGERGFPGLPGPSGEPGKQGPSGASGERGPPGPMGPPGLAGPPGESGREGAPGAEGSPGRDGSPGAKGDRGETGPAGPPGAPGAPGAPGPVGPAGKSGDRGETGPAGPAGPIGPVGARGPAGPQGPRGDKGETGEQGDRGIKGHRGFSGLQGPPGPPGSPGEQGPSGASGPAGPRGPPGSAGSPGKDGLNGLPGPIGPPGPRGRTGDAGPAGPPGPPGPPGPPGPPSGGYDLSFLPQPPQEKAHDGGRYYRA
Acid-soluble type I atelocollagen from bovine hides (bovine), sequence (P02465 80-1117, chain 2 of 2, further chain): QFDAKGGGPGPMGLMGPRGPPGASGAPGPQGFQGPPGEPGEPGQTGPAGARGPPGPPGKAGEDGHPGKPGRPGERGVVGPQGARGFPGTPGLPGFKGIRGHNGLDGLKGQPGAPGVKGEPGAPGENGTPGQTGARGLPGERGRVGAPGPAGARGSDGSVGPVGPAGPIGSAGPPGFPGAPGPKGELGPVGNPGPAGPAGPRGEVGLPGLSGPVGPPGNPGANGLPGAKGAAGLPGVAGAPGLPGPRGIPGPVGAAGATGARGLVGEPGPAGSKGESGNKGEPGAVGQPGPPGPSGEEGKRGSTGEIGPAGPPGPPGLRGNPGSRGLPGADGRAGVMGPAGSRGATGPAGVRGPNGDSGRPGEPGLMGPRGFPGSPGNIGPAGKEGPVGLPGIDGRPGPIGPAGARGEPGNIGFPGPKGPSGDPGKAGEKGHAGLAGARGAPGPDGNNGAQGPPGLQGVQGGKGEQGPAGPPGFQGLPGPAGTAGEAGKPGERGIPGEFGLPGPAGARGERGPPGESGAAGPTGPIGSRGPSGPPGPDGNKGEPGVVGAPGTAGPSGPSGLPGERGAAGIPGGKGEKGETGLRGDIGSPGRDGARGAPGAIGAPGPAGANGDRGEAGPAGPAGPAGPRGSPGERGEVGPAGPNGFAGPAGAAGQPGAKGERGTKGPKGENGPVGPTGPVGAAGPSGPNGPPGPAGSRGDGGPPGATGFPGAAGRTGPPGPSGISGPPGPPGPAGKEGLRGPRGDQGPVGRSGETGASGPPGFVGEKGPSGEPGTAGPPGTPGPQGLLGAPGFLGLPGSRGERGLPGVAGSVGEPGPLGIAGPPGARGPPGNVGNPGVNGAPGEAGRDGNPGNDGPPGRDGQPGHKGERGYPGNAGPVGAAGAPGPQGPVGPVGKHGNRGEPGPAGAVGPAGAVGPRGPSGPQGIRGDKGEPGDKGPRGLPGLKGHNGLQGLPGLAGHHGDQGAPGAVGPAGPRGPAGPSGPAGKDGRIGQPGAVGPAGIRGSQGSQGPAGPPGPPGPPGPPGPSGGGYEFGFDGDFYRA

[4] = biological target: Type I gelatin (heat-denatured acid-soluble type I atelocollagen from bovine hides) (bovine); assay: ELISA; indirect ELISA; gelatin immobilised, ColQ1-CU G472V variants in solution; 37 °C (Fig. 4B)
[5] = biological target: Acid-soluble type I atelocollagen from bovine hides (bovine) (UniProt P02453); assay: ELISA; indirect ELISA; soluble collagen immobilised, ColQ1-CU G472V variants in solution; 25 °C to preserve the triple-helical fold (Fig. 4C)
[6] = biological target: Type I gelatin (heat-denatured acid-soluble type I atelocollagen from bovine hides); assay: indirect ELISA; conditions: 37 °C; parent: est. 1.5 µM; read off a plot
[7] = biological target: V-(GXY)26 (Streptococcus pyogenes); assay: MST; NanoTemper Monolith NT.115, Protein Labeling Kit RED-NHS; 50 mM HEPES pH 7.5, 150 mM NaCl, 10 mM CaCl2, 10 µM ZnCl2, 0.05% Tween-20, 3 mM NaN3; with 1 mM ß-mercaptoethanol (reducing) (Fig. 5F)
[8] = biological target: V-(GXY)26 (Streptococcus pyogenes); assay: MST; NanoTemper Monolith NT.115, Protein Labeling Kit RED-NHS; 50 mM HEPES pH 7.5, 150 mM NaCl, 10 mM CaCl2, 10 µM ZnCl2, 0.05% Tween-20, 3 mM NaN3; without ß-mercaptoethanol (nonreducing) (Fig. 5F)
[9] = biological target: type I gelatin (heat-denatured acid-soluble type I atelocollagen from bovine hides) (bovine) (UniProt P02453); assay: ELISA
type I gelatin (heat-denatured acid-soluble type I atelocollagen from bovine hides) (bovine), sequence (P02453 23-1217, chain 1 of 2): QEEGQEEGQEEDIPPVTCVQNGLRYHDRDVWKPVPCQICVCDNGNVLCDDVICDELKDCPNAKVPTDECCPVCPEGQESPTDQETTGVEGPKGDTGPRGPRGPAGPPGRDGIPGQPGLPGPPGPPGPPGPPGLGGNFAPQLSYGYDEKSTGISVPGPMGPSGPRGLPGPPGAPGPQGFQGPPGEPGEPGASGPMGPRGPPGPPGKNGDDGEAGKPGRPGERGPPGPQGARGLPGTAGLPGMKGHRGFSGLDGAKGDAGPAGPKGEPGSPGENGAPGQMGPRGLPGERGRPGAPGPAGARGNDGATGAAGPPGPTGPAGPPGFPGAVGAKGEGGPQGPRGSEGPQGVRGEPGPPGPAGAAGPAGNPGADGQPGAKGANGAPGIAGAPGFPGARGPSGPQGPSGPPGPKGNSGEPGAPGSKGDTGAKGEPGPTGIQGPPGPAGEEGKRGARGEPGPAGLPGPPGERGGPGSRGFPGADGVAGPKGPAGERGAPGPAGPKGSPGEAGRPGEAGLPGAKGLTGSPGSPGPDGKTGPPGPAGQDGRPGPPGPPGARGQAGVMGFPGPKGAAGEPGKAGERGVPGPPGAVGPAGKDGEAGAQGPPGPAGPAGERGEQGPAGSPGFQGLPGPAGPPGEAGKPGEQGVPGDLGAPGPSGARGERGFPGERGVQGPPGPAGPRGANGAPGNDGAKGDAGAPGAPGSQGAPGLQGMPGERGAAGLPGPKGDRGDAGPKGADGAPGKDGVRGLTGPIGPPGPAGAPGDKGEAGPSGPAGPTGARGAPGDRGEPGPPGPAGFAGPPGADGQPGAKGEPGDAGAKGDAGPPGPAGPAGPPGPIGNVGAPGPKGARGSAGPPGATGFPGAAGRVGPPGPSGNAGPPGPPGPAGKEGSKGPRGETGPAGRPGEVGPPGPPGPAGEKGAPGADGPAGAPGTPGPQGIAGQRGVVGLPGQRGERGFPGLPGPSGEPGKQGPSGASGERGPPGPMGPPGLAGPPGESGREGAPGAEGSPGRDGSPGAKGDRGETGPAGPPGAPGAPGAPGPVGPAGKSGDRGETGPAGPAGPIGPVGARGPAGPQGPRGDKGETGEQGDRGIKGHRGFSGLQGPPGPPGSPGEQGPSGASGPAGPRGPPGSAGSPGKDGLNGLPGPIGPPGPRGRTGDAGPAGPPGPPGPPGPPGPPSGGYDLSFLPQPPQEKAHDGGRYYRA
type I gelatin (heat-denatured acid-soluble type I atelocollagen from bovine hides) (bovine), sequence (P02465 80-1117, chain 2 of 2, further chain): as the sequence (P02465 80-1117, chain 2 of 2, further chain) above

[10] = biological target: T1, soluble type I collagen (acid-soluble type I atelocollagen from bovine hides) (bovine, UniProt P02453 162-1217; P02465 80-1117); assay: ELISA; conditions: both partners purified
T1 construct: also called soluble collagen; tropocollagen
T1 sequence (P02453 162-1217, chain 1 of 2): as the sequence (P02453 162-1217, chain 1 of 2) above
T1 sequence (P02465 80-1117, chain 2 of 2): as the sequence (P02465 80-1117, chain 2 of 2, further chain) above

[11] = biological target: Acid-soluble type I atelocollagen from bovine hides (bovine, UniProt P02453 162-1217; P02465 80-1117); assay: ELISA; conditions: both partners purified
Acid-soluble type I atelocollagen from bovine hides, sequence (P02453 162-1217, chain 1 of 2): as the sequence (P02453 162-1217, chain 1 of 2) above
Acid-soluble type I atelocollagen from bovine hides, sequence (P02465 80-1117, chain 2 of 2): as the sequence (P02465 80-1117, chain 2 of 2, further chain) above

V-domain of Scl2.3 (domain or fragment) was tested, and the stoichiometry N [1] was 3.

In the case of “ColG-PD E524A (D398-G790) (domain or fragment)”, the Kd [2] is reported as 243 µM and the Kd [3] is reported as 497 µM.

“ColQ1-CU G472V N226A (domain or fragment)” gave a Kd [4] greater than 150 µM and a Kd [5] greater than 150 µM.

Work on “ColG-FL E524A (Y119-K1118) (from UniProt Q9X721 119-1118) (enzyme)” yielded a Kd [2] of 0.031 µM and a Kd [3] of 0.024 µM.

Work on ColQ1-CU G472V E166A yielded a Kd [6] of 4.8 µM.

Molecule “ColG-CBD2 (N1004-K1118) (from UniProt Q9X721 1004-1118) (domain or fragment)” has a Kd [2] of 253 µM.

Work on “ColG-CU CL4-G494V, noncrosslinked (reduced) (domain or fragment)” yielded a Kd [7] of 2.9 µM.

“ColG-AD (Y119-S392) (from UniProt Q9X721 119-392) (domain or fragment)” showed a Kd [2] of 0.11 µM.

“ColG-CU CL4-G494V, crosslinked (domain or fragment)” gave a Kd [8] of 36 µM.

ColQ1-CU G472V F176A showed a Kd [6] of 1.1 µM.

ColQ1-CU G472V F123A showed a Kd [6] of 1.5 µM.

For “ColQ1-CU G472V F176A (domain or fragment)”, the fold increase in affinity against ColQ1-CU G472V [5] was 20 fold.

ColQ1-CU G472V R169A showed a Kd [6] of 2.7 µM.

ColQ1-CU G472V (domain or fragment) showed a Kd [4] of 1.6 µM and a Kd [5] of 1.6 µM.

For “ColQ1-CU G472V Y270A (domain or fragment)”, the fold increase in affinity against ColQ1-CU G472V [5] was 8 fold.

In the case of “ColG-PKD (I799-N880) (from UniProt Q9X721 799-880) (domain or fragment)”, the Kd [9] is reported as greater than 1000 µM.

With “ColQ1-CU G472V Y173A (domain or fragment)” the fold drop in binding affinity against ColQ1-CU G472V [4] was 15 fold.

“ColG-CU E524A (Y119-G790) (domain or fragment)” showed a Kd [2] of 0.08 µM and a Kd [3] of 0.37 µM.

“ColQ1-CU G472V R169A (domain or fragment)” was tested, and the fold increase in affinity against ColQ1-CU G472V [5] was 9 fold.

B1: ColG-PKD (I799-N880) (domain or fragment)
chain: IAKVTGPSTGAVGRNIEFSGKDSKDEDGKIVSYDWDFGDGATSRGKNSVHAYKKAGTYNVTLKVTDDKGATATESFTIEIKN
notes: source: E. coli Nico21 (DE3), purified
Molecule B1 has a Kd [10] greater than 1000 µM.

B2: ColG-CBD2 (N1004-K1118) (domain or fragment)
chain: NEKLKEKENNDSSDKATVIPNFNTTMQGSLLGDDSRDYYSFEVKEEGEVNIELDKKDEFGVTWTLHPESNINDRITYGQVDGNKVSNKVKLRPGKYYLLVYKYSGSGNYELRVNK
modifications: fluorescently labeled in the fibrillar collagen assay (dye not stated)
notes: as for B1
Molecule B2 has a Kd [11] of 14 ± 1 µM.

B3: ColG-AD (Y119-S392) (domain or fragment)
chain: YDFEYLNGLSYTELTNLIKNIKWNQINGLFNYSTGSQKFFGDKNRVQAIINALQESGRTYTANDMKGIETFTEVLRAGFYLGYYNDGLSYLNDRNFQDKCIPAMIAIQKNPNFKLGTAVQDEVITSLGKLIGNASANAEVVNNCVPVLKQFRENLNQYAPDYVKGTAVNELIKGIEFDFSGAAYEKDVKTMPWYGKIDPFINELKALGLYGNITSATEWASDVGIYYLSKFGLYSTNRNDIVQSLEKAVDMYKYGKIAFVAMERITWDYDGIGS
modifications: fluorescently labeled in the fibrillar collagen assay (dye not stated)
notes: as for B1
In the case of B3, the Kd [11] is reported as 0.072 ± 0.009 µM.
